Data on one substance can be found in PMC10334784.

The target of the experiment is HCoV-OC43 nucleocapsid (N) protein, 2X-StrepTag tagged (HCoV-OC43) (UniProt P33469). Briefly: BLI. (BLI is a label-free optical method that tracks binding on a fibre tip over time.)
Sequence of HCoV-OC43 nucleocapsid (N) protein, 2X-StrepTag tagged (HCoV-OC43) (P33469 whole entry): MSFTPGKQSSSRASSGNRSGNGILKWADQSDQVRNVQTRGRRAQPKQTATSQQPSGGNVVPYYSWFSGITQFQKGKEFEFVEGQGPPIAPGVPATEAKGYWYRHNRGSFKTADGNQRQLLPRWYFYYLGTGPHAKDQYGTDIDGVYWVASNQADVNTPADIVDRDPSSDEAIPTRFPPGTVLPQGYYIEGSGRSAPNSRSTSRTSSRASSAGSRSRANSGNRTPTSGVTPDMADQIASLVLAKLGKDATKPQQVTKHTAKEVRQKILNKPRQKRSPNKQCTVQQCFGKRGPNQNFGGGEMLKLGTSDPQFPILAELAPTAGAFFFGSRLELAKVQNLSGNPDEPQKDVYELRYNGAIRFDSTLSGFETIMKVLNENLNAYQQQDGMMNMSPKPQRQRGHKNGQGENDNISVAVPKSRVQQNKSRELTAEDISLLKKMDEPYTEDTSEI

One may read the Kd as the equilibrium constant for the complex coming apart. What is called koff is the rate constant with which the complex falls apart. A high value points to fast dissociation. The kon is the rate constant with which the complex forms. The low end stands for slow association, the high end for fast association. CXCL4 (ligand) registered a Kd of 170 nM, a koff of 0.00088 s⁻¹ and a kon of 5300 M⁻¹ s⁻¹.
